T1: human MUC18 on human melanoma cell lines (human, UniProt P43121 24-646)
T1 construct: whole, on cells; also called MCAM; CD146
T1 sequence (looked up): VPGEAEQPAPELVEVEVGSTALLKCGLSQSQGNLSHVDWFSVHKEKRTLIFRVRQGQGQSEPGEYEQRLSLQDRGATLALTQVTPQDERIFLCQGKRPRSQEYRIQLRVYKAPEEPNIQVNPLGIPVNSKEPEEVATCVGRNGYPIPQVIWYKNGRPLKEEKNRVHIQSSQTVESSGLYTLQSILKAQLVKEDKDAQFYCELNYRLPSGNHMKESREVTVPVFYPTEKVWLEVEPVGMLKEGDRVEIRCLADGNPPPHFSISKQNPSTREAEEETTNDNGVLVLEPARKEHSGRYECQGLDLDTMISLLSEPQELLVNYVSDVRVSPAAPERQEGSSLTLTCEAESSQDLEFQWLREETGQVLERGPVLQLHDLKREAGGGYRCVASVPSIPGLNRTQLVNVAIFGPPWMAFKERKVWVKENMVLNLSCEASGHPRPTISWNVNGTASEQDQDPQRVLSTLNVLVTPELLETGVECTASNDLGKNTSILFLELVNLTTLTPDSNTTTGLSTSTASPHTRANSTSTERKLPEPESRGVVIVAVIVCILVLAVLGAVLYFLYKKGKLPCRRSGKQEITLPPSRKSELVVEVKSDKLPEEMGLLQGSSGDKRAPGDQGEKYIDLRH

B1: H111-S120 phage (phage clone displaying the mouse MUC18-derived peptide HDERMFLCKS, residues H111-S120 of MUC18) (peptide)
peptide: HDERMFLCKS
notes: also called MUC18-derived phage; MUC18-derived (H111-S120) phage
B2: CLFMRLAWC-phage (phage displaying the cyclic peptide CLFMRLAWC) (peptide)
peptide: CLFMRLAWC
modifications: disulfide 1-9 (inferred); also: displayed on phage
notes: also called phage clone displaying the peptide motif Arg-Met-Phe-Leu
B3: mouse MUC18 (melanoma cell adhesion molecule) (receptor, UniProt Q8R2Y2 24-648, looked up)
chain: VPGEEKQPVPTPDLVEAEVGSTALLKCGPSRASGNFSQVDWFLIHKERQILIFRVHQGKGQREPGEYEHRLSLQDSVATLALSHVTPHDERMFLCKSKRPRLQDHYVELQVFKAPEEPTIQANVVGIHVDRQELREVATCVGRNGYPIPQVLWYKNSLPLQEEENRVHIQSSQIVESSGLYTLKSVLSARLVKEDKDAQFYCELSYRLPSGNHMKESKEVTVPVFYPAEKVWVEVEPVGLLKEGDHVTIRCLTDGNPQPHFTINKKDPSTGEMEEESTDENGLLSLEPAEKHHSGLYQCQSLDLETTITLSSDPLELLVNYVSDVQVNPTAPEVQEGESLTLTCEAESNQDLEFEWLRDKTGQLLGKGPVLQLNNVRREAGGRYLCMASVPRVPGLNRTQLVSVGIFGSPWMALKERKVWVQENAVLNLSCEASGHPQPTISWNVNGSATEWNPDPQTVVSTLNVLVTPELLETGAECTASNSLGSNTTTIVLKLVTLTTLIPDSSQTTGLSTLTVSPHTRANSTSTEKKLPQPESKGVVIVAVIVCTLVLAVLGAALYFFYKKGKLPCGRSGKQEITLPPTRKSEFVVEVKSDKLPEEMALLQGSNGDKRAPGDQGEKYIDLRH
notes: whole, on cells; Present on B16 melanoma cells before and after co-culture with B-1 lymphocytes; In the immunocapture assay it was captured from cell membrane extracts by anti-MUC18 antibody; In Western blot and co-IP it came from cell membrane extracts; also called MCAM; native mouse MUC18

Data set [1] addresses B3. Kind of data set: phage binding to B16 melanoma cells post versus pre co-culture with B-1 lymphocytes.
The target of data set [2] is T1, human MUC18 on human melanoma cell lines. Kind of data set: phage binding to a panel of 8 human melanoma cell lines.
In data set [3] the target is B3. Kind of data set: alanine-scanning phage binding to melanoma cells.
Data set [4] has as its target B3. As to the kind of experiment: phage binding (relative TU) to B16 melanoma cells post co-culture with B-1 lymphocytes.
The target of data set [5] is B3. Kind of data set: phage binding (relative TU) to B16 melanoma cells post versus pre co-culture with B-1 lymphocytes.
Data set [6] deals with the molecule itself. Kind of data set: conclusion drawn from phage binding, immunocapture, antibody inhibition and shRNA experiments.

Bridge positions count the residues as written; N and C are the ends. Ends that are not written are not given here.

In the case of B1, the “fold increase in phage binding relative to baseline binding to melanoma cells pre co-culture with B-1 lymphocytes” value in data set [1] turned out to be 2.5 fold. Besides, the binding result in data set [2] is given as “binds”. For HDERMFLCKA (Numbering counts on mouse MUC18) [H111-S120 phage with Ser120 mutated (alanine scanning)], the binding result in data set [3] was “no binding”. As to HDERMFLAKS (Numbering counts on mouse MUC18) [H111-S120 phage with Cys118 mutated (alanine scanning)], the binding result in data set [3] was “no binding”. As to HDERMFLCAS (Numbering counts on mouse MUC18) [H111-S120 phage with Lys119 mutated (alanine scanning)], the binding result in data set [3] is listed as “no binding”. On the same count and under the same terms, then HDEAMFLCKS (Numbering counts on mouse MUC18) [H111-S120 phage with Arg114 mutated (alanine scanning)], with “no binding”. Take B2: in data set [4], the “fold increase in phage binding relative to control insertless phage” value was approximately 20 fold. Besides, in data set [5], the “fold increase in phage binding relative to melanoma cells without co-culture with B-1 lymphocytes” value is approximately 12 fold. B3: the binding result in data set [6] was “binds”.

For the origin of these results see patent publication US20130296252A1 (University of Texas, published 2013).
